Source: article PMC7801428 (Nature Communications, 2021)

Biological target: SARS-CoV-2 S trimer (stabilized S ectodomain, residues 1-1208, proline substitutions at 986 and 987, GSAS at … (SARS-CoV-2, Wuhan-Hu-1, proline substitution at residue 986 | proline substitution at residue 987 | …, biotin (EZ-Link Sulfo-NHS-LC-LC-Biotin) in the BLI experiments; not labelled for cryo-EM)
Experiment: BLI
Details: both partners purified

B1: human-mouse chimeric antibody 3C1 (c3C1) (antibody, V domains shown)
VH: EVQLQESGPSLVKPSQTLSLTCSVTGDSITNGYWNWIRKFPGNKLEYMGYISYSGSTYYSPSLKSRISITRDTSKNQHYLQLNSVTSEDTATYYCASDYHGSKYYFDYWGQGTTLTVSS
VL: DIVMTQSHKFMSTSVGHRVSITCKASQDVGNDVAWYQQKPGQSPKLLIYWASTRHTGVPDRFTGSGSGTDFTLTISNVQSEDLADYFCQQYNRYPYTFGGGTKLEIK
notes: also called chimeric MAb c3C1
Question: B1 was tested. Which Kd did it give?
Answer: The Kd was less than 1 pM.
